According to patent US20090118127A1 (Janssen / Centocor, published 2009):

Columns and labels:
[1] = target: T1, human tumor necrosis factor alpha (TNFα) (human, UniProt P01375 77-233); assay: Biacore (SPR), calculated KD
T1 construct: also called human TNFα

[2] = target: T1, human tumor necrosis factor alpha (TNFα); assay: Biacore (SPR), 3 pairs of experiments
[3] = target: T1, human tumor necrosis factor alpha (TNFα); assay: ELISA, human TNFα coated on the plate, bound antibody detected with HRP anti-human kappa
Experimental: Antibodies were assessed for binding to human TNFα using an ELISA format. Briefly, human TNFα was coated into the wells of a 96 well plate and candidate mAbs were incubated at various concentrations (20 to 0.2 ng/ml) and bound antibody was detected with HRP-labeled anti-human kappa light chain IgG (Jackson, ImmunoResearch, West Grove, Pa.).

T1 sequence (P01375 77-233 limits assumed): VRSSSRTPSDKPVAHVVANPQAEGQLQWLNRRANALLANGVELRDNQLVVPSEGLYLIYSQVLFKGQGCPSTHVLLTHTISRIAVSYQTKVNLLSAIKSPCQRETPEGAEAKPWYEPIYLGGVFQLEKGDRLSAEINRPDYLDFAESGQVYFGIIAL

B1: Structure Based Human Adapted C7 (antibody, V domains shown)
VH: EVQLVESGGGLVQPGGSLRLSCAASGFIFSNHWMNWVRQAPGKGLEWIGEIRSKSINSATHYAESVKGRFIISRDDNKNSLYLEMNSLKTEDTAEYYCARNYYGSTYDYWGQGTLVTVS
VL: EIVLTQSPDFQSVTPKEKVTITCRASQFVGSSIHWYQQKPDQSPKLLIKYASESMSGVPSRFSGSGSGTDFTFTISSLEAEDAATYYCQQSHSWPFTFGPGTKVDIK
[1]
  Kd: 0.07 nM
[2]
  koff: 5.63e-05 s⁻¹
  kon: 803000 M⁻¹ s⁻¹
[3]
  EC50 (read off the curve): ~2 ng/mL
